According to the supplement of paper PMC5998384:

How the values were obtained:
[1] = tested on: HeLa Kyoto; assay: melting temperature (median over replicates), in situ; higher = more thermally stable
[2] = tested on: HeLa Kyoto; assay: solubility in G1/S (NP-40 vs SDS abundance) (log2 ratio); higher = more soluble; conditions: cell cycle stage: G1/S
[3] = tested on: HeLa Kyoto; assay: solubility change mitosis vs G1/S (difference of NP-40 vs SDS log2 ratios) (log2 ratio difference); higher = more soluble in mitosis
[4] = tested on: HeLa Kyoto; assay: thermal stability score vs G1/S (z-score of summed log2 fold changes over temperatures); higher = more thermally stable than in G1/S
[5] = cell cycle stage: early G1 (4.5 h after nocodazole release)
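Wherever melting temperature (median over replicates), in situ is given: HeLa Kyoto cells synchronized by double thymidine or nocodazole block, proteins quantified by TMT10plex mass spectrometry, three independent biological replicates.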
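Wherever solubility change mitosis vs G1/S (difference of NP-40 vs SDS log2 ratios) is given: synchronized HeLa Kyoto cells (double thymidine block for G1/S, nocodazole release for mitosis), protein amounts in NP-40 versus SDS lysates quantified by mass spectrometry, three biological replicates.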
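Wherever solubility in G1/S (NP-40 vs SDS abundance) is given: HeLa Kyoto cells arrested at G1/S by double thymidine block, proteins quantified by TMT10plex mass spectrometry in mild NP-40 versus SDS extracts, three biological replicates.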
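Wherever thermal stability score vs G1/S (z-score of summed log2 fold changes over temperatures) is given: synchronized HeLa Kyoto cells, proteins quantified by TMT10plex mass spectrometry, three biological replicates, mitosis taken 0.5 h after nocodazole release, G1/S directly after double thymidine block.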

Sequence	melting temperature ([1]; cell cycle stage: G1/S)	melting temperature ([1]; cell cycle stage: mitosis)	solubility in G1/S (log2) [2]	solubility change mitosis (log2) [3]	thermal stability score [4, 5]	thermal stability score ([4]; cell cycle stage: mitosis)
MAAAAVSGALGRAGWRLLQLRCLPVARCRQALVPRAFHASAVGLRSSDEQKQQPPNSFSQQHSETQGAEKPDPESSHSPPRYTDQGGEEEEDYESEEQLQHRILTAALEFVPAHGWTAEAIAEGAQSLGLSSAAASMFGKDGSELILHFVTQCNTRLTRVLEEEQKLVQLGQAEKRKTDQFLRDAVETRLRMLIPYIEHWPRALSILMLPHNIPSSLSLLTSMVDDMWHYAGDQSTDFNWYTRRAMLAAIYNTTELVMMQDSSPDFEDTWRFLENRVNDAMNMGHTAKQVKSTGEALVQGLMGAAVTLKNLTGLNQRR [COQ9]	51.5 °C	51.8 °C	0.16	0.333	-0.112	0.754
MEAVKTFNSELYSLNDYKPPISKAKMTQITKAAIKAIKFYKHVVQSVEKFIQKCKPEYKVPGLYVIDSIVRQSRHQFGQEKDVFAPRFSNNIISTFQNLYRCPGDDKSKIVRVLNLWQKNNVFKSEIIQPLLDMAAGIPPPVVTPVLASTTTAMSNTPGTPVTPVTPANVVQGLPDPWVSQITNTDTLAAVAQILQSPQGQQLQQLIQTLQIQQQKPQPSILQALDAGLVVQLQALTAQLTAAAAAANTLTPLEQGVSFNKKLMDRFDFGEDSEHSEEPKKEIPASQLSHVSESVNNSIFHQIAEQLQQQNLEHLRQQLLEQQQPQKATPQDSQEGTFGSEHSASPSQGSSQQHFLEPEVNLDDSIDIQQQDMDIDEGQDGVEEEVFEQEAKKVAVRSRSRTHSRSRSRSPRKRRSRSRSGSRKRKHRKRSRSRSRERKRKSSRSYSSERRAREREKERQKKGLPPIRSKTLSVCSTTLWVGQVDKKATQQDLTNLFEEFGQIESINMIPPRGCAYVCMVHRQDAFRALQKLSSGSYKIGSKVIKIAWALNKGVKTEYKQFWDVDLGVTYIPWEKVKVDDLEGFAEGGMIDQETVNTEWETVKSSEPVKETVQTTQSPTPVEKETVVTTQAEVFPPPVAMLQIPVAPAVPTVSLVPPAFPVSMPVPPPGFSPIPPPPFLRASFNPSQPPPGFMPPPVPPPVVPPPTIPPVVPTSLVQPSLSMTPETVKDVGFGSLVIPGGSVASNLATSALPAGNVFNAPTKQAEPEEKVPHLIDHQISSGENTRSVIPNDISSNAAILGGQPPNVTSNSGILGVQRPNVSSNSEILGVRPSNVSSSSGIIAAQPPNILNNSGILGIQPPSVSNSSGLLGVLPPNIPNNSGLVGVQPPNVPNTPGLLGTQPPAGPQNLPPLSIPNQRMPTMPMLDIRPGLIPQAPGPRFPLIQPGIPPQRGIPPPSVLDSALHPPPRGPFPPGDIFSQPERPFLAPGRQSVDNVTNPEKRIPLGNDNIQQEGDRDYRFPPIETRESISRPPPVDVRDVVGRPIDPREGPGRPPLDGRDHFGRPPVDIRENLVRPGIDHLGRRDHFGFNPEKPWGHRGDFDEREHRVLPVYGGPKGLHEERGRFRSGNYRFDPRSGPWNRGFGQEVHRDFDDRRRPWERQRDRDDRDFDFCREMNGNRLGRDRIQNTWVPPPHARVFDYFEGATSQRKGDNVPQVNGENTERHAQPPPIPVQNDPELYEKLTSSNEINKEKSDTVADIESEPVVESTETEGT [SCAF8]	48.6 °C	49.3 °C	-0.11	-0.0284	0.536	0.448
MLVSGRRRLLTVLLQAQKWPFQPSRDMRLVQFRAPHLVGPHLGLETGNGGGVINLNAFDPTLPKTMTQFLEQGEATLSVARRALAAQLPVLPRSEVTFLAPVTRPDKVVCVGMNYVDHCKEQNVPVPKEPIIFSKFASSIVGPYDEVVLPPQSQEVDWEVELAVVIGKKGKHIKATDAMAHVAGFTVAHDVSARDWQMRRNGKQWLLGKTFDTFCPLGPALVTKDSVADPHNLKICCRVNGEVVQSGNTNQMVFKTEDLIAWVSQFVTFYPGDVILTGTPPGVGVFRKPPVFLKKGDEVQCEIEELGVIINKVV [FAHD2A]	55.7 °C	56.4 °C	0.253	-0.192	-1.17	-2.54
MEGAGENAPESSSSAPGSEESARDPQVPPPEEESGDCARSLEAVPKKLCGYLSKFGGKGPIRGWKSRWFFYDERKCQLYYSRTAQDANPLDSIDLSSAVFDCKADAEEGIFEIKTPSRVITLKAATKQAMLYWLQQLQMKRWEFHNSPPAPPATPDAALAGNGPVLHLELGQEEAELEEFLCPVKTPPGLVGVAAALQPFPALQNISLKHLGTEIQNTMHNIRGNKQAQGTGHEPPGEDSPQSGEPQREEQPLASDASTPGREPEDSPKPAPKPSLTISFAQKAKRQNNTFPFFSEGITRNRTAQEKVAALEQQVLMLTKELKSQKELVKILHKALEAAQQEKRASSAYLAAAEDKDRLELVRHKVRQIAELGRRVEALEQERESLAHTASLREQQVQELQQHVQLLMDKNHAKQQVICKLSEKVTQDFTHPPDQSPLRPDAANRDFLSQQGKIEHLKDDMEAYRTQNCFLNSEIHQVTKIWRKVAEKEKALLTKCAYLQARNCQVESKYLAGLRRLQEALGDEASECSELLRQLVQEALQWEAGEASSDSIELSPISKYDEYGFLTVPDYEVEDLKLLAKIQALESRSHHLLGLEAVDRPLRERWAALGDLVPSAELKQLLRAGVPREHRPRVWRWLVHLRVQHLHTPGCYQELLSRGQAREHPAARQIELDLNRTFPNNKHFTCPTSSFPDKLRRVLLAFSWQNPTIGYCQGLNRLAAIALLVLEEEESAFWCLVAIVETIMPADYYCNTLTASQVDQRVLQDLLSEKLPRLMAHLGQHHVDLSLVTFNWFLVVFADSLISNILLRVWDAFLYEGTKVVFRYALAIFKYNEKEILRLQNGLEIYQYLRFFTKTISNSRKLMNIAFNDMNPFRMKQLRQLRMVHRERLEAELRELEQLKAEYLERRASRRRAVSEGCASEDEVEGEA [TBC1D2]	49.7 °C	49.4 °C	-0.179	-0.0396	1.39	0.724
MFEEKASSPSGKMGGEEKPIGAGEEKQKEGGKKKNKEGSGDGGRAELNPWPEYIYTRLEMYNILKAEHDSILAEKAEKDSKPIKVTLPDGKQVDAESWKTTPYQIACGISQGLADNTVIAKVNNVVWDLDRPLEEDCTLELLKFEDEEAQAVYWHSSAHIMGEAMERVYGGCLCYGPPIENGFYYDMYLEEGGVSSNDFSSLEALCKKIIKEKQAFERLEVKKETLLAMFKYNKFKCRILNEKVNTPTTTVYRCGPLIDLCRGPHVRHTGKIKALKIHKNSSTYWEGKADMETLQRIYGISFPDPKMLKEWEKFQEEAKNRDHRKIGRDQELYFFHELSPGSCFFLPKGAYIYNALIEFIRSEYRKRGFQEVVTPNIFNSRLWMTSGHWQHYSENMFSFEVEKELFALKPMNCPGHCLMFDHRPRSWRELPLRLADFGVLHRNELSGALTGLTRVRRFQQDDAHIFCAMEQIEDEIKGCLDFLRTVYSVFGFSFKLNLSTRPEKFLGDIEVWDQAEKQLENSLNEFGEKWELNSGDGAFYGPKIDIQIKDAIGRYHQCATIQLDFQLPIRFNLTYVSHDGDDKKRPVIVHRAILGSVERMIAILTENYGGKWPFWLSPRQVMVVPVGPTCDEYAQKVRQQFHDAKFMADIDLDPGCTLNKKIRNAQLAQYNFILVVGEKEKISGTVNIRTRDNKVHGERTISETIERLQQLKEFRSKQAEEEF [TARS]	51.9 °C	51.6 °C	-0.0551	-0.144	0.00611	-0.985
MSKEERPGREEILECQVMWEPDSKKNTQMDRFRAAVGAACGLALESYDDLYHWSVESYSDFWAEFWKFSGIVFSRVYDEVVDTSKGIADVPEWFKGSRLNYAENLLRHKENDRVALYIAREGKEEIVKVTFEELRQEVALFAAAMRKMGVKKGDRVVGYLPNSEHAVEAMLAAASIGAIWSSTSPDFGVNGVLDRFSQIQPKLIFSVEAVVYNGKEHNHMEKLQQVVKGLPDLKKVVVIPYVSSRENIDLSKIPNSVFLDDFLATGTSEQAPQLEFEQLPFSHPLFIMFSSGTTGAPKCMVHSAGGTLIQHLKEHLLHGNMTSSDILLCYTTVGWMMWNWMVSLLATGAAMVLYDGSPLVPTPNVLWDLVDRIGITVLVTGAKWLSVLEEKAMKPVETHSLQMLHTILSTGSPLKAQSYEYVYRCIKSSILLGSISGGTDIISCFMGHNFSLPVYKGEIQARNLGMAVEAWNEEGKAVWGESGELVCTKPIPCQPTHFWNDENGNKYRKAYFSKFPGIWAHGDYCRINPKTGGIVMLGRSDGTLNPNGVRFGSSEIYNIVESFEEVEDSLCVPQYNKYREERVILFLKMASGHAFQPDLVKRIRDAIRMGLSARHVPSLILETKGIPYTLNGKKVEVAVKQIIAGKAVEQGGAFSNPETLDLYRDIPELQGF [AACS]	48.5 °C	48 °C	0.0299	-0.129	0.491	1.92
MAATRSPTRARERERSGAPAAGSDQVHSWMLATSQALDTVWRMAKGFVMLAVSFLVAAICYFRRLHLYSGHKLKWWIGYLQRKFKRNLSVEAEVDLLSYCAREWKGETPRNKLMRKAYEELFWRHHIKCVRQVRRDNYDALRSVLFQIFSQGISFPSWMKEKDIVKLPEKLLFSQGCNWIQQYSFGPEKYTGSNVFGKLRKYVELLKTQWTEFNGIRDYHKRGSMCNTLFSDAILEYKLYEALKFIMLYQVTEVYEQMKTKKVIPSLFRLLFSRETSSDPLSFMMNHLNSVGDTCGLEQIDMFILGYSLEVKIKVFRLFKFNSRDFEVCYPEEPLRDWPEISLLTENDRHYHIPVF [FAM105A]	–	52.7 °C	-0.437	-0.0882	-0.702	-1.45
MSLWGLVSKMPPEKVQRLYVDFPQHLRHLLGDWLESQPWEFLVGSDAFCCNLASALLSDTVQHLQASVGEQGEGSTILQHISTLESIYQRDPLKLVATFRQILQGEKKAVMEQFRHLPMPFHWKQEELKFKTGLRRLQHRVGEIHLLREALQKGAEAGQVSLHSLIETPANGTGPSEALAMLLQETTGELEAAKALVLKRIQIWKRQQQLAGNGAPFEESLAPLQERCESLVDIYSQLQQEVGAAGGELEPKTRASLTGRLDEVLRTLVTSCFLVEKQPPQVLKTQTKFQAGVRFLLGLRFLGAPAKPPLVRADMVTEKQARELSVPQGPGAGAESTGEIINNTVPLENSIPGNCCSALFKNLLLKKIKRCERKGTESVTEEKCAVLFSASFTLGPGKLPIQLQALSLPLVVIVHGNQDNNAKATILWDNAFSEMDRVPFVVAERVPWEKMCETLNLKFMAEVGTNRGLLPEHFLFLAQKIFNDNSLSMEAFQHRSVSWSQFNKEILLGRGFTFWQWFDGVLDLTKRCLRSYWSDRLIIGFISKQYVTSLLLNEPDGTFLLRFSDSEIGGITIAHVIRGQDGSPQIENIQPFSAKDLSIRSLGDRIRDLAQLKNLYPKKPKDEAFRSHYKPEQMGKDGRGYVPATIKMTVERDQPLPTPELQMPTMVPSYDLGMAPDSSMSMQLGPDMVPQVYPPHSHSIPPYQGLSPEESVNVLSAFQEPHLQMPPSLGQMSLPFDQPHPQGLLPCQPQEHAVSSPDPLLCSDVTMVEDSCLSQPVTAFPQGTWIGEDIFPPLLPPTEQDLTKLLLEGQGESGGGSLGAQPLLQPSHYGQSGISMSHMDLRANPSW [STAT6]	48.4 °C	49.6 °C	0.0515	-0.111	0.798	2.24
MAGLGHPAAFGRATHAVVRALPESLGQHALRSAKGEEVDVARAERQHQLYVGVLGSKLGLQVVELPADESLPDCVFVEDVAVVCEETALITRPGAPSRRKEVDMMKEALEKLQLNIVEMKDENATLDGGDVLFTGREFFVGLSKRTNQRGAEILADTFKDYAVSTVPVADGLHLKSFCSMAGPNLIAIGSSESAQKALKIMQQMSDHRYDKLTVPDDIAANCIYLNIPNKGHVLLHRTPEEYPESAKVYEKLKDHMLIPVSMSELEKVDGLLTCCSVLINKKVDS [DDAH1]	55.3 °C	56.1 °C	0.157	0.0143	0.276	-0.764
MFVELNNLLNTTPDRAEQGKLTLLCDAKTDGSFLVHHFLSFYLKANCKVCFVALIQSFSHYSIVGQKLGVSLTMARERGQLVFLEGLKSAVDVVFQAQKEPHPLQFLREANAGNLKPLFEFVREALKPVDSGEARWTYPVLLVDDLSVLLSLGMGAVAVLDFIHYCRATVCWELKGNMVVLVHDSGDAEDEENDILLNGLSHQSHLILRAEGLATGFCRDVHGQLRILWRRPSQPAVHRDQSFTYQYKIQDKSVSFFAKGMSPAVL [ELP6]	55.1 °C	54.4 °C	-0.082	-0.245	-0.431	-1.3
